Data reported in publication PMC10397247.

Assays:
Assay in all cases: two-hybrid library CCmax;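 further: natural log of median RNA to DNA barcode read ratio; higher means stronger binding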
4H2330-AA = biological target: T1, 4H2330-AA; conditions: mean of both orientations
T1 chain: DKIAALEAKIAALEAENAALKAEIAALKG

4H3590-AA = biological target: T2, 4H3590-AA; conditions: mean of both orientations
T2 chain: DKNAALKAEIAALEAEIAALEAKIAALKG

4H3381-AA = biological target: T3, 4H3381-AA; conditions: mean of both orientations
T3 chain: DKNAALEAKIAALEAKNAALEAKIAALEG

4H3753-AA = biological target: T4, 4H3753-AA; conditions: mean of both orientations
T4 chain: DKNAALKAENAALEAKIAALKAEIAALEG

4H2389-AA = biological target: T5, 4H2389-AA; conditions: mean of both orientations
T5 chain: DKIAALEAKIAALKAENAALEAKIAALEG

4H3865-AA = biological target: T6, 4H3865-AA; conditions: mean of both orientations
T6 chain: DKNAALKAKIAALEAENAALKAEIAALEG

4H1579-AA = biological target: T7, 4H1579-AA
T7 chain: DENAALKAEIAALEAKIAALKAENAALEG

4H891-AA = biological target: T8, 4H891-AA; conditions: mean of both orientations
T8 chain: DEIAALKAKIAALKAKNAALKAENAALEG

4H2698-AA = biological target: T9, 4H2698-AA; conditions: mean of both orientations
T9 chain: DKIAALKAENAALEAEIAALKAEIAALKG

4H3395-AA = biological target: T10, 4H3395-AA; conditions: mean of both orientations
T10 chain: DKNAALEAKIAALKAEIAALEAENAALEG

4H94-AA = biological target: T11, 4H94-AA; conditions: mean of both orientations
T11 chain: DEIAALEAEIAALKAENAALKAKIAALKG

4H1842-AA = biological target: T12, 4H1842-AA; conditions: mean of both orientations
T12 chain: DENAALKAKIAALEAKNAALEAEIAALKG

4H2109-AA = biological target: T13, 4H2109-AA; conditions: mean of both orientations
T13 chain: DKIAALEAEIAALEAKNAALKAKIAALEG

4H2865-AA = biological target: T14, 4H2865-AA
T14 chain: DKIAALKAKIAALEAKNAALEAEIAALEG

4H536-AA = biological target: T15, 4H536-AA; conditions: mean of both orientations
T15 chain: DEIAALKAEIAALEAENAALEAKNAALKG

4H710-AA = biological target: T16, 4H710-AA; conditions: mean of both orientations
T16 chain: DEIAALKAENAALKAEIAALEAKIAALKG

4H2438-AA = biological target: T17, 4H2438-AA; conditions: mean of both orientations
T17 chain: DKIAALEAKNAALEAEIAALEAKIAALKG

4H485-AA = biological target: T18, 4H485-AA; conditions: mean of both orientations
T18 chain: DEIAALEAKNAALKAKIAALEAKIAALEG

4H3165-AA = biological target: T19, 4H3165-AA; conditions: mean of both orientations
T19 chain: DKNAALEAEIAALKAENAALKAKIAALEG

4H3697-AA = biological target: T20, 4H3697-AA; conditions: mean of both orientations
T20 chain: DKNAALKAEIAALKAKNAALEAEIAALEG

4H2473-AA = biological target: T21, 4H2473-AA; conditions: mean of both orientations
T21 chain: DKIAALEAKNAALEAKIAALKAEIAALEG

4H1597-AA = biological target: T22, 4H1597-AA; conditions: mean of both orientations
T22 chain: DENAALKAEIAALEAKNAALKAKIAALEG

4H570-AA = biological target: T23, 4H570-AA; conditions: mean of both orientations
T23 chain: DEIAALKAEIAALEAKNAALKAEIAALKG

4H3410-AA = biological target: T24, 4H3410-AA; conditions: mean of both orientations
T24 chain: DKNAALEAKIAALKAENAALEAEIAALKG

4H930-AA = biological target: T25, 4H930-AA; conditions: mean of both orientations
T25 chain: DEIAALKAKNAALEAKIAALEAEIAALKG

4H2253-AA = biological target: T26, 4H2253-AA; conditions: mean of both orientations
T26 chain: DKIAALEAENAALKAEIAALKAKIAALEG

4H629-AA = biological target: T27, 4H629-AA; conditions: mean of both orientations
T27 chain: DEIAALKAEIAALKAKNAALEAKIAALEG

4H850-AA = biological target: T28, 4H850-AA; conditions: mean of both orientations
T28 chain: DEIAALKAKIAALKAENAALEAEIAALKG

4H3130-AA = biological target: T29, 4H3130-AA
T29 chain: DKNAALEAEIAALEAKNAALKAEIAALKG

4H1864-AA = biological target: T30, 4H1864-AA; conditions: mean of both orientations
T30 chain: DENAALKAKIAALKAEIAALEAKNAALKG

4H3120-AA = biological target: T31, 4H3120-AA; conditions: mean of both orientations
T31 chain: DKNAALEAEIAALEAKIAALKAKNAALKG

4H2649-AA = biological target: T32, 4H2649-AA; conditions: mean of both orientations
T32 chain: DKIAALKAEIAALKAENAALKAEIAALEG

4H171-AA = biological target: T33, 4H171-AA; conditions: mean of both orientations
T33 chain: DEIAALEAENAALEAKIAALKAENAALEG

4H3016-AA = biological target: T34, 4H3016-AA; conditions: mean of both orientations
T34 chain: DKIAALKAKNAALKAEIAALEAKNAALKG

4H2725-AA = biological target: T35, 4H2725-AA; conditions: mean of both orientations
T35 chain: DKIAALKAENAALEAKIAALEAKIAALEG

4H3009-AA = biological target: T36, 4H3009-AA; conditions: mean of both orientations
T36 chain: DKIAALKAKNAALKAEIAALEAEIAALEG

4H745-AA = biological target: T37, 4H745-AA; conditions: mean of both orientations
T37 chain: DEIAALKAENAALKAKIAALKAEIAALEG

4H909-AA = biological target: T38, 4H909-AA; conditions: mean of both orientations
T38 chain: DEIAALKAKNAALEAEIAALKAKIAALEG

4H1877-AA = biological target: T39, 4H1877-AA; conditions: mean of both orientations
T39 chain: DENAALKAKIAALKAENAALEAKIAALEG

4H797-AA = biological target: T40, 4H797-AA; conditions: mean of both orientations
T40 chain: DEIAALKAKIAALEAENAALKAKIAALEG

4H1626-AA = biological target: T41, 4H1626-AA; conditions: mean of both orientations
T41 chain: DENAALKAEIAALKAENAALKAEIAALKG

4H174-AA = biological target: T42, 4H174-AA; conditions: mean of both orientations
T42 chain: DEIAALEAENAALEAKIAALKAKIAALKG

4H2274-AA = biological target: T43, 4H2274-AA; conditions: mean of both orientations
T43 chain: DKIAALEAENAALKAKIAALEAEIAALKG

4H310-AA = biological target: T44, 4H310-AA; conditions: mean of both orientations
T44 chain: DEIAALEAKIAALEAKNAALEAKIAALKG

4H2162-AA = biological target: T45, 4H2162-AA; conditions: mean of both orientations
T45 chain: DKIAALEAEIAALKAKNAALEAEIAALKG

4H458-AA = biological target: T46, 4H458-AA; conditions: mean of both orientations
T46 chain: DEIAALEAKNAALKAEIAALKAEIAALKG

interaction score (4H2330-AA): -1.81 | interaction score (4H3590-AA): 1.2 | interaction score (4H3381-AA): -1.48 | interaction score (4H3753-AA): 1.01 | interaction score (4H2389-AA): -1.56 | interaction score (4H3865-AA): -1.22 | interaction score (4H1579-AA): 0.482 | interaction score (4H891-AA): -1 | interaction score (4H2698-AA): -1.29 | interaction score (4H3395-AA): 0.656 | interaction score (4H94-AA): -1.21 | interaction score (4H1842-AA): -2.03 | interaction score (4H2109-AA): 0.8 | interaction score (4H2865-AA): -1.53 | interaction score (4H536-AA): 0.42 | interaction score (4H710-AA): -1.33 | interaction score (4H2438-AA): -1.18 | interaction score (4H485-AA): -0.986 | interaction score (4H3165-AA): -1.86 | interaction score (4H3697-AA): -1.92 | interaction score (4H2473-AA): -1.09 | interaction score (4H1597-AA): -0.651 | interaction score (4H570-AA): -0.453 | interaction score (4H3410-AA): -1.51 | interaction score (4H930-AA): -1.7 | interaction score (4H2253-AA): -1.23 | interaction score (4H629-AA): -1.42 | interaction score (4H850-AA): -1.18 | interaction score (4H3130-AA): -1.12 | interaction score (4H1864-AA): 2.38 | interaction score (4H3120-AA): 0.595 | interaction score (4H2649-AA): -1.11 | interaction score (4H171-AA): -1.67 | interaction score (4H3016-AA): 0.0969 | interaction score (4H2725-AA): -1.31 | interaction score (4H3009-AA): -2.01 | interaction score (4H745-AA): 1.21 | interaction score (4H909-AA): -1.94 | interaction score (4H1877-AA): -0.858 | interaction score (4H797-AA): -1.46 | interaction score (4H1626-AA): -1.19 | interaction score (4H174-AA): -0.805 | interaction score (4H2274-AA): -1.24 | interaction score (4H310-AA): -1.28 | interaction score (4H2162-AA): -1.63 | interaction score (4H458-AA): -1.8
Binder: DENAALKAEIAALEAKIAALKAENAALEG [4H1579-AA]
